This passage reports protein stability index results from the supplement of paper PMC10724198.

± gives the standard deviation of the averaged measurements.

In this series the test system is Saccharomyces cerevisiae. In words: protein stability index of tFT-peptide fusion (C-terminal peptide) (PSI (0-1 scale)); higher = more stable (slower turnover). Conditions: temperature: 30 C. How it is done: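 MPS profiling in S. cerevisiae of the yeast C-terminome library: the last 12 aa of each annotated ORF are fused to the C-terminus of a sfGFP-mCherry timer, after a GGGS linker. Cells are FACS-sorted into 8 mCherry/sfGFP bins and deep-sequenced. PSI runs from 0 (unstable) to 1 (stable); wild type and das1Δ backgrounds, two technical replicates each.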

Setting [1] is: genetic background: das1 deletion.

For IFIFSWLGYEDS [ATG10 C-terminal 12 aa], the protein stability index was 0.661 ± 0.043 under setting [1] and 0.664 ± 0.019 (genetic background: wild type).

Consider IGEWTISYTSLI [IPA1 C-terminal 12 aa], for which the protein stability index was 0.66 ± 0.015 under setting [1] and 0.669 ± 0.041 (genetic background: wild type).

As for IGFKRKRKHAKK [NOP4 C-terminal 12 aa], the protein stability index turned out to be 0.703 ± 0.051 under setting [1] and 0.7117 ± 0.0028 (genetic background: wild type).

Take IGFNKLGQMVYI [MRPS35 C-terminal 12 aa]: the protein stability index is, setting by setting: under setting [1], 0.669 ± 0.018; (genetic background: wild type) 0.666 ± 0.029.

For the sequence IGGNCATRLFKL [SLM6 C-terminal 12 aa], the protein stability index came to 0.7481 ± 0.0008 under setting [1] and 0.737 ± 0.024 (genetic background: wild type).

As to IGRRKLVGYKHH [ATP20 C-terminal 12 aa], the protein stability index is, setting by setting: under setting [1], 0.702 ± 0.02; (genetic background: wild type) 0.666 ± 0.015.

Regarding IGSIKEDYLGAI [RPB7 C-terminal 12 aa], the protein stability index runs as follows: under setting [1], 0.692 ± 0.021; (genetic background: wild type) 0.6737 ± 0.0027.

IHYFKSNLSSPS [RAM1 C-terminal 12 aa]: the protein stability index reads like this: under setting [1], 0.688 ± 0.022; (genetic background: wild type) 0.724 ± 0.028.

Sequence IIDLNLHSFTKQ [POP6 C-terminal 12 aa] registered a protein stability index under setting [1] of 0.722 ± 0.022 and a protein stability index (genetic background: wild type) of 0.73 ± 0.021.

IKLADAIYKGLE [FOL1 C-terminal 12 aa]: the protein stability index under setting [1] was determined as 0.702 ± 0.013 and the protein stability index (genetic background: wild type) stood at 0.6648 ± 0.0011.

On to IKNTGDLLKLYK [ALK1 C-terminal 12 aa], for which the protein stability index runs as follows: under setting [1], 0.685 ± 0.021; (genetic background: wild type) 0.647 ± 0.0085.

For the sequence ILELVNEDYQSI [MRP17 C-terminal 12 aa], the protein stability index is 0.738 ± 0.048 under setting [1] and 0.71 ± 0.039 (genetic background: wild type).

Consider ILEYQKRRSFIK [IRC3 C-terminal 12 aa], for which the protein stability index runs as follows: under setting [1], 0.7238 ± 0.0049; (genetic background: wild type) 0.652 ± 0.021.

As for ILKPYYIWNNRN [ARR3 C-terminal 12 aa], the protein stability index under setting [1] came out at 0.7161 ± 0.0069 and the protein stability index (genetic background: wild type) amounted to 0.276 ± 0.0074.

On to ILRLRLRKATFD [PRM1 C-terminal 12 aa], for which the protein stability index reads like this: under setting [1], 0.706 ± 0.023; (genetic background: wild type) 0.708 ± 0.044.

Regarding ILRQARCDRPHY [YEL068C C-terminal 12 aa], the protein stability index by setting is: under setting [1], 0.691 ± 0.02; (genetic background: wild type) 0.727 ± 0.071.

Turning to “ILVLRHFDEIFI [YOR032W-A C-terminal 12 aa]”, the protein stability index came out at 0.63 ± 0.0065 under setting [1] and 0.655 ± 0.044 (genetic background: wild type).

Regarding IMICFLERRKGN [FYV1 C-terminal 12 aa], the protein stability index runs as follows: under setting [1], 0.652 ± 0.018; (genetic background: wild type) 0.638 ± 0.075.

Consider “IMTSEIVTNALR [YEL030C-A C-terminal 12 aa]”, for which the protein stability index is 0.70774 ± 0.00013 under setting [1] and 0.705 ± 0.022 (genetic background: wild type).

Consider INDKNTEYTLKE [MRX9 C-terminal 12 aa], for which the protein stability index worked out at 0.703 ± 0.019 under setting [1] and 0.732 ± 0.017 (genetic background: wild type).

On to INEFIEQSCKGE [YMR187C C-terminal 12 aa], for which the protein stability index runs as follows: under setting [1], 0.687 ± 0.024; (genetic background: wild type) 0.7 ± 0.044.

In the case of INQEAYQAFLRR [GUF1 C-terminal 12 aa], the protein stability index amounted to 0.7022 ± 0.0031 under setting [1] and 0.7039 ± 0.0062 (genetic background: wild type).

Take IPPLIWLRKKRC [PUL3 C-terminal 12 aa]: the protein stability index came to 0.69553 ± 0.00032 under setting [1] and 0.664 ± 0.0097 (genetic background: wild type).

As for IQEISAAVKKYT [SAM4 C-terminal 12 aa], the protein stability index runs as follows: under setting [1], 0.704 ± 0.014; (genetic background: wild type) 0.728 ± 0.038.

On to IQTLRIKQDRYK [MAK10 C-terminal 12 aa], for which the protein stability index amounted to 0.711 ± 0.0083 under setting [1] and 0.665 ± 0.029 (genetic background: wild type).

For ISEIEQLLSKLK [ATP4 C-terminal 12 aa], the protein stability index under setting [1] was 0.698 ± 0.014 and the protein stability index (genetic background: wild type) came out at 0.684 ± 0.045.

With ISNDMQVPPQIS [CKS1 C-terminal 12 aa], the protein stability index is, setting by setting: under setting [1], 0.722 ± 0.0098; (genetic background: wild type) 0.688 ± 0.011.

Take ISPSKSITMVAE [YDR526C C-terminal 12 aa]: the protein stability index was determined as 0.689 ± 0.011 under setting [1] and 0.6363 ± 0.0024 (genetic background: wild type).
